Measurements as given in publication PMC4333378, “Human PrimPol is a highly error-prone polymerase regulated by single-stranded DNA binding proteins” (Nucleic Acids Research, 2014).

T1: mtSSB (human, UniProt Q04837 17-148)
T1 sequence: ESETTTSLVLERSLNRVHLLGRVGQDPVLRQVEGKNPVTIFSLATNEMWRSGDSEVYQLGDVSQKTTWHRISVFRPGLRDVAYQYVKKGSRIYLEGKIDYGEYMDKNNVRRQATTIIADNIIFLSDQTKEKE

T2: full-length human PrimPol (recombinant) (human, UniProt Q96LW4 1-560)
T2 construct: also called wild-type PrimPol
T2 sequence (looked up): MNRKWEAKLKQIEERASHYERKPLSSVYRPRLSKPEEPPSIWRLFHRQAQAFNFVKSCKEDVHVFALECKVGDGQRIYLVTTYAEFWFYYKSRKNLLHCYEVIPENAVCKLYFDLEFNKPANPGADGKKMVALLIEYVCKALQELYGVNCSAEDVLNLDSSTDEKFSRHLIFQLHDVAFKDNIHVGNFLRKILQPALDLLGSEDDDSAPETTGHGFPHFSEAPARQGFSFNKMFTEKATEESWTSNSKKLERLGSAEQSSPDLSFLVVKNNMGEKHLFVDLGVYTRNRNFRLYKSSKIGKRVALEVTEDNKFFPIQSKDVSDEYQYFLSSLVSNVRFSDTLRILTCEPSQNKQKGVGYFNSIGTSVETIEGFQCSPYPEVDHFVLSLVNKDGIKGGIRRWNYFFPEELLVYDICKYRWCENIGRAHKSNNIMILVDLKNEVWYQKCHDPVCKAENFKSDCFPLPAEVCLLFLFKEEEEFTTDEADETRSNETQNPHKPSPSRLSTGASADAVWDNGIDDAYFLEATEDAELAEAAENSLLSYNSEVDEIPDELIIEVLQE


Legend:
[1] = biological target: RPA (replication protein A) (human, UniProt P27694;P15927;P35244 1-616;1-270;1-121); experiment: EMSA; 10 mM Mg acetate; SSB/oligo 0-16; more than twice as much RPA as mtSSB needed to fully shift; super-shifted bands = multiple SSBs bound; EMSA: 50 mM K acetate, 20 mM Tris-acetate pH 7.9, 10 mM Mg acetate, 1 mM DTT, 60 nM FAM-ssDNA, 60 min at room temperature; 5% native PAGE in 0.5x TBE; conditions: protein: recombinant; copies: 1;1;1; label: 5'-FAM (fluorescein); single strand
[2] = biological target: T1, mtSSB; experiment: EMSA; 10 mM Mg acetate; full shift at less than half the amount needed for RPA; super-shifted bands = multiple SSBs bound; EMSA: 50 mM K acetate, 20 mM Tris-acetate pH 7.9, 10 mM Mg acetate, 1 mM DTT, 60 nM FAM-ssDNA, 60 min at room temperature; 5% native PAGE in 0.5x TBE; conditions: protein: recombinant; chain copies: 4; label: 5'-FAM (fluorescein); single strand
[3] = biological target: T2, full-length human PrimPol (recombinant); experiment: NMR titration; 15N-1H HSQC of 15N-enriched RPA domain (50 uM RPA70N) alone and with 2-fold molar excess (100 uM) of unlabelled PrimPol construct; 25°C; 20 mM HEPES, 80 mM NaCl, 2 mM DTT, 5% deuterium oxide, pH 7.1; conditions: both partners purified

Sequence of RPA (replication protein A) (P15927 whole entry, chain 2 of 2): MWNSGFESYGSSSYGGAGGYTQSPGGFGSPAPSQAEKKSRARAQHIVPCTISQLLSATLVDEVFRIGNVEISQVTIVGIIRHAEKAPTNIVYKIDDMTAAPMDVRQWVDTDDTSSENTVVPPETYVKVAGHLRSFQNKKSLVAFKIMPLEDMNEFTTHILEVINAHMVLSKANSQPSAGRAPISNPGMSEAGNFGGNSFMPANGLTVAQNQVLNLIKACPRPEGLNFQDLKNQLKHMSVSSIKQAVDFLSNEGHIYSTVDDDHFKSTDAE
Sequence of RPA (replication protein A) (P35244 whole entry, chain 3 of 2): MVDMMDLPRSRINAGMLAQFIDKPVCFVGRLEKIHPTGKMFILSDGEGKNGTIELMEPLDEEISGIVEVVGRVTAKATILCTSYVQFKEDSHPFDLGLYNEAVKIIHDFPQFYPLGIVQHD

Binder | binding result [1] | binding result [2] | binding result [3]
CGCGCAGGGCGCACAACAGCCTTGAAGACCGAACGACCGAACAGACGACA (ssDNA) [ND-50 ssDNA Template (sequence 16)] | binds | binds | –
RPA70N^1–120 (DBD-N of RPA1, N-terminal domain of RPA70) (domain or fragment, human, UniProt P27694 1-120, looked up, 15N-enriched, RPA70 (RPA1) residues 1-120, N-terminal protein recruitment domain) MVGQLSEGAIAAIMQKGDTNIKPILQVINIRPITTGNSPPRYRLLMSDGLNTLSSFMLATQLNPLVEEEQLSSNCVCQIHRFIVNTLKDGRRVVILMELEVLKSAEAVGVKIGNPVPYNE | – | – | binds
